Measurements as given in paper PMC5834165, “Crystal structures of PCNA mutant proteins defective in gene silencing suggest a novel interaction site on the front face of the PCNA ring” (PLoS ONE, 2018).

B1: D41A/D42A mutant PCNA protein from Saccharomyces cerevisiae (natural protein)
chain: MLEAKFEEASLFKRIIDGFKDCVQLVNFQCKEDGIIAQAVAASRVLLVSLEIGVEAFQEYRCDHPVTLGMDLTSLSKILRCGNNTDTLTLIADNTPDSIILLFEDTKKDRIAEYSLKLMDIDADFLKIEELQYDSTLSLPSSEFSKIVRDLSQLSDSINIMITKETIKFVADGDIGSGSVIIKPFVDMEHPETSIKLEMDQPVDLTFGAKYLLDIIKGSSLSDRVGIRLSSEAPALFQFDLKSGFLQFFLAPKFNDEE
notes: PCNA, Saccharomyces cerevisiae, with D41A and D42A; also called D41A/D42A PCNA; encoded by the pol30-6 allele; source: E. coli, overexpressed, purified as described previously [35]
B2: R61A/D63A mutant PCNA protein from Saccharomyces cerevisiae (natural protein)
chain: MLEAKFEEASLFKRIIDGFKDCVQLVNFQCKEDGIIAQAVDDSRVLLVSLEIGVEAFQEYACAHPVTLGMDLTSLSKILRCGNNTDTLTLIADNTPDSIILLFEDTKKDRIAEYSLKLMDIDADFLKIEELQYDSTLSLPSSEFSKIVRDLSQLSDSINIMITKETIKFVADGDIGSGSVIIKPFVDMEHPETSIKLEMDQPVDLTFGAKYLLDIIKGSSLSDRVGIRLSSEAPALFQFDLKSGFLQFFLAPKFNDEE
notes: PCNA, Saccharomyces cerevisiae, with R61A and D63A; also called R61A/D63A PCNA; encoded by the pol30-8 allele; source: E. coli, overexpressed, purified as described previously [35]
B3: L126A/I128A mutant PCNA protein from Saccharomyces cerevisiae (natural protein)
chain: MLEAKFEEASLFKRIIDGFKDCVQLVNFQCKEDGIIAQAVDDSRVLLVSLEIGVEAFQEYRCDHPVTLGMDLTSLSKILRCGNNTDTLTLIADNTPDSIILLFEDTKKDRIAEYSLKLMDIDADFAKAEELQYDSTLSLPSSEFSKIVRDLSQLSDSINIMITKETIKFVADGDIGSGSVIIKPFVDMEHPETSIKLEMDQPVDLTFGAKYLLDIIKGSSLSDRVGIRLSSEAPALFQFDLKSGFLQFFLAPKFNDEE
notes: PCNA, Saccharomyces cerevisiae, with L126A and I128A; also called L126A/I128A PCNA; encoded by the pol30-79 allele; source: E. coli, overexpressed, purified as described previously [35]

Molecular target: the molecule itself
Experiment: native gel or EMSA; proteins at 0.1, 0.5, 1.0 mg/ml in 10 mM Tris-Cl pH 7.6, 150 mM NaCl, 2.5% Ficoll-400, 10 mM EDTA, 5 min; 4-20% gradient nondenaturing Tris-Glycine gel at 4°C; Coomassie blue; self-association (trimer)

| Protein | stoichiometry N |
| --- | --- |
| B1 | 3 |
| B2 | 3 |
| B3 | 3 |
